Consider 3 molecules from article PMC9001736 (2022).

Experiment [1] concerns the target T1, REEE peptide (mimetic of the Nt-R cargo degradation signal).
T1 peptide: REEE

The target of experiment [2] is T2, ZZ domain of HERC2 (HERC2ZZ, aa 2702–2755 with additional tryptophan at the C-terminus) (human, UniProt O95714 2702-2755).
T2 chain: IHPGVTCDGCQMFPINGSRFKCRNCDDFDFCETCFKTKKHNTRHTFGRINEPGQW
Nature of the experiment: value cited from earlier reference.

For experiment [3], the target named is T3, ZZ domain of p300 (p300ZZ) (human).
T3 chain: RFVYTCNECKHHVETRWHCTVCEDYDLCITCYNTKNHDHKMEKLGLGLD
Nature of the experiment: value cited from earlier reference.

One may read the Kd as the concentration at which binding is half-saturated. Low values mean higher affinity, high ones lower affinity.

B1: p62 ZZ (protein)
chain: not shown
On to B1, for which, in experiment [1], binding was put at a Kd of 1.9 µM. Molecule ARTKQTARKSTG registered a Kd in experiment [2] of 15 µM.

B2: histone H3_(1–12) peptide (aa 1–12 of H3) (peptide)
peptide: ARTKQTARKSTG
modifications: zinc-bound (2 Zn2+ expected for a ZZ finger); limits from the UniProt ZZ-type feature, construct limits not given
On to B2, for which, in experiment [3], the affinity, expressed as Kd, was 8.8 µM.
